Assay results: the RNAGym collection of RNA variant scans (doi:10.1073/pnas.2313332121)
Variants at the floor of the assay were thinned out.

B1: TPR 5TU (parent)
chain: GGAUCUUCUCGAUCUAACAAAAAAGACAAAUCUGCCACAAAGCUUGAGAGCAUCUUCGGAUGCAGAGGCGGCAGCCUUCGGUGGCGCGAUAGCGCCAACGUUCUCAACUAUGACACGCAAAACGCGUGCUCCGUUGAAUGGAGUUUAUCAUG

Variants of: B1
Test: polymerase ribozyme fitness, log enrichment relative to wild type (log ratio); higher = more active; in vitro selection for triplet polymerase activity
How it was run: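 PCR was used to build mutant libraries for each subunit of a heterodimeric triplet polymerase ribozyme, which were then transcribed. A single in vitro selection round, in triplicate, used a frozen incubation at −7 °C and recovered extended constructs by gel excision, streptavidin beads and RT-PCR. Fitness is the logarithm of genotype enrichment relative to wild-type enrichment, averaged over replicates with inverse-variance weights. The logarithm is base 2, and after Illumina sequencing only genotypes with ≥10 input reads and ≥1 read per output were kept.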

Variant	polymerase ribozyme fitness (log ratio)
GGAUCUUCUCGAUCUAACAAAAAAGACAAAUCUGCCACAAAGCUUGAGAGCAUCUUCAGAUGCAGAGGCGGCAGCCUUCGGUGGCUCGAUAGCGCCAACGUUCUCAACUAUGACACGCUAAACGCGUGCUCCGUUGAAUGGAGUUUAUCAUG [G58A G86U A119U]	-2.06
GGAUCUUCUCGAUCUAACAAAAAAGACAAAUCUGCCACAAAGCUUGAGAGCAUCUUCAGAUGCAGAGGCGGCAGCCUUCGGUAGCGCGAUAGCGCCAACGUUCUCAACUAUGACACGCAAAACGCGUGCUCCGUUGAAUGGAGUUUCUCAUG [G58A G83A A147C]	-0.252
GGAUCUUCUCGAUCUAACAAAAAAGACAAAUCUGCCACAAAGCUUGAGAGCAUCUUCAGAUGCAGAGGCGGCAGCCUUCGGCGGCGCGAUACCGCCAACGUUCUCAACUUUGACACGCAAAACGCGUGCUCCGUUAAAUGGAGUUUAUCAUG [G58A U82C G92C A110U G136A]	≤ -4.2
GGAUCUUCUCGAUCUAACAAAAAAGACAAAUCUGCCACAAAGCUUGAGAGCAUCUUCAGAUGCAGAGGCGGCAGCCUUCGGUGGCGCGAUAGCGCCAACGUGCUCAACUAUGACACGCAAUACGCGUGCUCCGUUGAAUGGAGUUUAUCAUG [G58A U102G A121U]	-2.85
GGAUCUUCUCGAUCUAACAAAAAAGACAAAUCUGCCACAAAGCUUGAGAGCAUCUUCAGAUGCAGAGGCGGCAGCCUUCGGUGGCGCGAUAGCGCCAACGUUCUCAACUAUGACAUGCAAAACGCGUGCUCCGUUGAAUGGAGUUUAUCAUG [G58A C116U]	0.457
GGAUCUUCUCGAUCUAACAAAAAAGACAAAUCUGCCACAAAGCUUGAGAGCAUCUUCAGAUGCAGAGGCGGCAGCCUUCGGUGGCGCGAUAGCGCCAACGUUCUCAACUAUGACACGCAAAACGCGUGCUCCAUUGAAUGGAGUUUAUCAUG [G58A G133A]	-4
GGAUCUUCUCGAUCUAACAAAAAAGACAAAUCUGCCACAAAGCUUGAGAGCAUCUUCAUAUCCAGAUGCGGCUGCCUUCGGUGGCGCGAUAGCGCAAACGUUCUCAACUAUGACACGCAAAACGCGUGCGCCGUUGAUUGGAGUUUAUCGUG [G58A G59U G62C G67U A73U C96A U130G A138U A150G]	≤ -4.2
GGAUCUUCUCGAUCUAACAAAAAAGACAAAUCUGCCACAAAGCUUGAGAGCAUCUUCAGAUGCAGAGGCGGCAGCCUUCCGUGGCGCGAUAGCGCCAACGUUCUCAACUAUGACACGCAAAACGCGUGCUCCGUUGAAUGGAGUUUAUCAUG [G58A G80C]	≤ -4.2
GGAUCUUCUCGAUCUAACAAAAAAGACAAAUCUGCCACAAAGCUUGAGAGCAUCUUCCGAUGCAGAGGCGGCGGCCUUCGGUGUCGCGAUAGCGCCAACGUUCUCAACUAUGACACGCAAAACGCGUGCUCCGUUGAAUGGAGUUUAUCAUG [G58C A73G G84U]	-1.97
GGAUCUUCUCGAUCUAACAAAAAAGACAAAUCUGCCACAAAGCUUGAGAGCAUCUUCAGAUGCAGAGGCGGCAGCCUUCGGUGGCGCGAUAGCGCCAACGUUCUCAACUAUGACACUCAAAACGCGUGCUCCGUUGAAUGGAGUUUAUCAUG [G58A G117U]	1.04
GGAUCUUCUCGAUCUAACAAAAAAGACAAAUCUGCCACAAAGCUUGAGAGCAUCUUCAGAUGCAGAGGCGGCAGCCUUCGGUGGCGCGAUAGCGCCAACGUUCUCAACUAUGACACGCAAAACGCGUGCUCCGUUGAAUGGAGUUGAUCAUG [G58A U146G]	0.231
GGAUCUUCUCGAUCUAACAAAAAAGACAAAUCUGCCACAAAGCUUGAGAGCAUCUUCCGAUGCGAAGGCGACAGCCUUCGGUGGCGCGAUAGCGUCAACGGUCUCAACUAUGACACGCAAAACGCGUGCUCCGUUGAAUGGAGUUUAUCAUG [G58C A64G G65A G71A C95U U101G]	≤ -4.2
GGAUCUUCUCGAUCUAACAAAAAAGACAAAUCUGCCACAAAGCUUGAGAGCAUCUUCCGGUGCAGAGGCGGCAGCCUUCGGUGGCGCGAUAGCGCCAACGUUCUCAACUAUGACACGCAAAACGCGUGCUCCGUUGAAUGGAGUUUAUCAUG [G58C A60G]	0.746
GGAUCUUCUCGAUCUAACAAAAAAGACAAAUCUGCCACAAAGCUUGAGAGCAUCUUCAGAUGCAGAGGCGGCAGCCUUCGGAGGCGCGUUAGCGCCAACGUUCUCAACUAUGACACGCGUAACGCUUGCUCCGUUGAAUGGAGUUUAUCAUG [G58A U82A A89U A119G A120U G126U]	-0.897
GGAUCUUCUCGAUCUAACAAAAAAGACAAAUCUGCCACAAAGCUUGAGAGCAUCUUCCGAUGCAGAGGCGGCAGCCUUCGGUGGCGCGAUAGCGCCAACGUUCUCAACUAUGACACGCAAAACGCGUGCUCCGUUGAAUGGAGUUUAUCAUG [G58C]	0.0074
GGAUCUUCUCGAUCUAACAAAAAAGACAAAUCUGCCACAAAGCUUGAGAGCAUCUUCAGAUGCAGAGGCGGCAGCCUUCGGUGGCUCGAUAGCGCCAACGUUCUCAACUAUGACACGCAAAACGCGUGCUCCGUUGAAUGGAGUUUAUCAUG [G58A G86U]	-1.12
GGAUCUUCUCGAUCUAACAAAAAAGACAAAUCUGCCACAAAGCUUGAGAGCAUCUUCAGAUGCAGAGGCGGCAGCCUUCGGUGGCGCGAUAGCGCCAACGUUUUCAACUAUGACACGAAAAACGCGUGCUCAGUUGACUGGAGUUUAUCAUG [G58A C103U C118A C132A A138C]	≤ -4.2
GGAUCUUCUCGAUCUAACAAAAAAGACAAAUCUGCCACAAAGCUUGAGAGCAUCUUCCGAUGCAGGGGCGGCAGCCUUCGGUGGCGCGAUAGCGCCAACGUUCUCAACUAUGACACGCAAAACGCGUGCUCCGUUGAAUUGAGUUUAUCAUG [G58C A66G G140U]	≤ -4.2
GGAUCUUCUCGAUCUAACAAAAAAGACAAAUCUGCCACAAAGCUUGAGAGCAUCUUCCGAUGCAGCGGCGGCAGCCUUCGGUGGCGGGAUAGCGCCAACGUUCUCAACUAUGACACGCAAAACGCGUGCUCCGUUGAAAGGAGUUUAUCAUG [G58C A66C C87G U139A]	≤ -4.2

Variant	polymerase ribozyme fitness (log ratio)
GGAUCUUCUCGAUCUAACAAAAAAGACAAAUCUGCCACAAAGCUUGAGAGCAUCUUCAGAUGCAGAGGCGGCAGCCCUCUGUGGCGCGAGAGAGCCAACGUUCUCAACUAUGACACGCAAGACGCGUGCUCCGUUGAAUGGGGUUUAUCAUG [G58A U77C G80U U90G C93A A121G A142G]	≤ -4.2
GGAUCUUCUCGAUCUAACAAAAAAGACAAAUCUGCCACAAAGCUUGAGAGCAUCUUCAGAUGCAGAGGCGGCAGCCUUCGGUGGCGCGAUAGCGCCAACGUUCUCAACUAUGACACGCAAAACGCGUGCUCCGUUGAAUGGAGUGUAUCAUG [G58A U145G]	0.851
GGAUCUUCUCGAUCUAACAAAAAAGACAAAUCUGCCACAAAGCUUGAGAGCAUCUUCAGAUGCAGAGGCGGCAGCCUUCGGUGGCGCGAUAGCCCCAACGUUCUCAACUAUGACACGCAAAACGCGUGCUCCGUUGAAUGGAGUUUAUCAUG [G58A G94C]	-0.674
GGAUCUUCUCGAUCUAACAAAAAAGACAAAUCUGCCACAAAGCUUGAGAGCAUCUUCAGAUGCAGAGGCGGCAGCCUUCGGUGGCGCGAUAGCACCAACGUUCUCAACUAUGACACGCAAAACGCGUGCUCCGUUGAAUGGAGUUUAUCAUG [G58A G94A]	-0.945
GGAUCUUCUCGAUCUAACAAAAAAGACAAAUCUGCCACAAAGCUUGAGAGCAUCUUCAGAUGCAGAGGCGGCAGCCUUCUGUGACGCAAUAGCGCCAACGUUCUCAACUAUGACACGCAAAACGCGUGCUCCGUUGAAUGGAGUUUAUCAUG [G58A G80U G84A G88A]	≤ -4.2
GGAUCUUCUCGAUCUAACAAAAAAGACAAAUCUGCCACAAAGCUUGAGAGCAUCUUCAGAUGCAGAGGCGGCAGCCUUCGGUGGCGCUAUAGCGCUAACGUUCUCAACUAUGACACGAAAAACGAGUGCUCCAUUGAAUGGAGUUUAUCAUG [G58A G88U C96U C118A C125A G133A]	≤ -4.2
GGAUCUUCUCGAUCUAACAAAAAAGACAAAUCUGCCACAAAGCUUGAGAGCAUCUUCAGAAGCAGAGGCGGCAGCCUUCGGUGGCGCGAUAGCGCCAACGUUCUCAGCUAUGACACGGGAAACGCGUGCUCCGUUGAAUGGAGUUUAUCAUG [G58A U61A A107G C118G A119G]	≤ -4.2
GGAUCUUCUCGAUCUAACAAAAAAGACAAAUCUGCCACAAAGCUUGAGAGCAUCUUCAGAUGCAGAGGCGGCAGCCUUCGGUUGCGCGAUAGCGCCAACGUUCUCAACUAUGACACGCAAAACGCGUGCUCCGUUGAAUGGAGUUUAUCAUG [G58A G83U]	0.174
GGAUCUUCUCGAUCUAACAAAAAAGACAAAUCUGCCACAAAGCUUGAGAGCAUCUUCAGAUGCAGAGGCGGCAGCCUUCGGCGGCGCGAUAGCGCCAACGUUCUCAACUAUGACACGCAAAACGCGUGCUCCGUUGAAUGGAGUUUCUGAUG [G58A U82C A147C C149G]	≤ -4.2
GGAUCUUCUCGAUCUAACAAAAAAGACAAAUCUGCCACAAAGCUUGAGAGCAUCUUCAGAUGCAGAGGCGGCAGCCUUCGGUGGCGCGAUAGCGCCAACUUUCUCAACUAUGACACGCAAAACGCGUGCUCCGUUGAAUGGAGUUUAUCAUG [G58A G100U]	-3.22
GGAUCUUCUCGAUCUAACAAAAAAGACAAAUCUGCCACAAAGCUUGAGAGCAUCUUCAGAUGCAGAGGCGGCAGCCUUCGGUGGCGCGAUAACGCCAACGUUCUCAACUAUGACACGCAAAAGGCGUGCUCCGUUGAAUGGAGUUUAUCAUG [G58A G92A C123G]	-4.01
GGAUCUUCUCGAUCUAACAAAAAAGACAAAUCUGCCACAAAGCUUGAGAGCAUCUUCAGAUGCAGAGGCGGCAGCCUUCGGUAGCGCGAUAGCGCCAACGUUCUCAACUAUGACACGCAAAACGCGUGCUCCGUUGAAUUGAGUUUAUCAUG [G58A G83A G140U]	-3.64
GGAUCUUCUCGAUCUAACAAAAAAGACAAAUCUGCCACAAAGCUUGAGAGCAUCUUCAGAAGCAGAGGCGGCAGCCUUCGGUGGCGCCAUAGCGCCAACGUUCUCAACUAUGACACGCAAAACGCGUGCUCCUUUGAAUGGAGUUUAUCAUG [G58A U61A G88C G133U]	≤ -4.2
GGAUCUUCUCGAUCUAACAAAAAAGACAAAUCUGCCACAAAGCUUGAGAGCAUCUUCCGAUGCAGAGGCGGCAGCCUUCGGUGGCGCGGUAGCGCCAACGUUCUCAACUAUGACACGCAAAACGCGUGCUCCGUUGAAUGGAGUUUAUCAUG [G58C A89G]	-0.995
GGAUCUUCUCGAUCUAACAAAAAAGACAAAUCUGCCACAAAGCUUGAGAGCAUCUUCAGAUGCAGAGGCGGCAGCCUUCGGUGGCACGAUAGCGCCAACGUUCUCAACUGUGACCCGCAAAACGCGUGCUCCGUUGAAUGGAGUUUAUCAGG [G58A G86A A110G A115C U151G]	≤ -4.2
GGAUCUUCUCGAUCUAACAAAAAAGACAAAUCUGCCACAAAGCUUGAGAGCAUCUUCAGAUGCAGAGGCGGCAGCCUUCGAUGGCGCGAUAGCGCCAACGUUCUCAACUAUGACACGCAAAACGCGUGCUCCGUUGAAUGGAGUUUAUCAUG [G58A G81A]	-0.536
GGAUCUUCUCGAUCUAACAAAAAAGACAAAUCUGCCACAAAGCUUGAGAGCAUCUUCAGAUGCAGAGGCGGCAGCCUUCGGUGGCGCGAUAGCGCCAACGUUCUCAACUAUGACACGCAAAACGCGUGCUCCGUCGAAUGGAGUUUAUCAUG [G58A U135C]	-1.39
GGAUCUUCUCGAUCUAACAAAAAAGACAAAUCUGCCACAAAGCUUGAGAGCAUCUUCCGGUGCAGAGGCGGCAGUCUUCGGUGGCGCGAUAGCGCCAACGUUCUCAACUAUGACACGCAAAACGCGUGCUCCGUUGAAUGGAGUUUAUCAUG [G58C A60G C75U]	0.32
GGAUCUUCUCGAUCUAACAAAAAAGACAAAUCUGCCACAAAGCUUGAGAGCAUCUUCAAAUGCAGAGGCGGCAGCCUUCGGUGGCGCGAUAGCGCCAACGUUCUCAACUAUGACACGCAAAGCGCGUGCUCCGUUGAAUGGAGUUUACCAUG [G58A G59A A122G U148C]	-2.64
